This note sets out measurements from patent US5162210A, “Process for enzymatic hydrolysis of starch to glucose” (Iowa State University Research Foundation, priority 1990, dated 1992).

Common to all, as to experiment: purified protein, by the assay type
Substrate in data set [1]: OC[C@H]1O[C@H](OC[C@H]2OC(O)[C@H](O)[C@@H](O)[C@@H]2O)[C@H](O)[C@@H](O)[C@@H]1O
Substrate in data set [2]: OC[C@H]1O[C@H](O[C@H]2[C@H](O)[C@@H](O)[C@H](O)O[C@@H]2CO)[C@H](O)[C@@H](O)[C@@H]1O
Substrate in data set [3]: OC[C@H]1O[C@H](O[C@H]2[C@H](O)[C@@H](O)[C@@H](O[C@H]3[C@H](O)[C@@H](O)[C@@H](O[C@H]4[C@H](O)[C@@H](O)[C@@H](O[C@H]5[C@H](O)[C@@H](O)[C@@H](O[C@H]6[C@H](O)[C@@H](O)[C@@H](O[C@H]7[C@H](O)[C@@H](O)C(O)O[C@@H]7CO)O[C@@H]6CO)O[C@@H]5CO)O[C@@H]4CO)O[C@@H]3CO)O[C@@H]2CO)[C@H](O)[C@@H](O)[C@@H]1O
[4] abbreviates: other: 45 C., pH 4.5, 0.05M sodium acetate buffer, pH 4.5, 45.0 °C.
[5] abbreviates: other: pH 4.4 and 50° C., pH 4.4, 50.0 °C.
The mark [6] stands for this setting: other: 45 C., pH 4.5, 0.05M sodium acetate buffer.

B1: Aspergillus awamori glucoamylase, wild type (unmutated, expressed in Saccharomyces cerevisiae) (Aspergillus awamori) (protein)
chain: ATLDSWLSNEATVARTAILNNIGADGAWVSGADSGIVVASPSTDNPDYFYTWTRDSGLVLKTLVDLFRNGDTSLLSTIENYISAQAIVQGISNPSGDLSSGAGLGEPKFNVDETAYTGSWGRPQRDGPALRATAMIGFGQWLLDNGYTSTATDIVWPLVRNDLSYVAQYWNQTGYDLWEEVNGSSFFTIAVQHRALVEGSAFATAVGSSCSWCDSQAPEILCYLQSFWTGSFILANFDSSRSGKDANTLLGSIHTFDPEAACDDSTFQPCSPRALANHKEVVDSFRSIYTLNDGLSDSEAVAVGRYPEDTYYNGNPWFLCTLAAAEQLYDALYQWDKQGSLEVTDVSLDFFKALYSDAATGTYSSSSSTYSSIVDAVKTFADGFVSIVETHAASNGSMSEQYDKSDGEQLSARDLTWSYAALLTANNRRNSVVPASWGETSASSVPGTCAATSAIGTYSSVTVTSWPSIVATGGTTTTATPTGSGSVTSTSKTTATASKTSTSTSSTSCTTPTAVAVTFDLTATTTYGENIYLVGSISQLGDWETSDGIALSADKYTSSDPLWYVTVTLPAGESFEYKFIRIESDDSVEWESDPNREYTVPQACGTSTATVTDTWR
As to B1, the Michaelis-Menten constant (Km) in data set [1] (setting [4]) is 30300 µM; in data set [1] (setting [5]) it was 36000 µM; in data set [2] (setting [4]), 1400 µM; in data set [2] (setting [5]), 1730 µM; in data set [3] (setting [4]), 140 µM; in data set [3] (setting [5]), 220 µM. For the same protein, the catalytic constant (kcat) in data set [1] (setting [4]) came to 0.34 s⁻¹; in data set [1] (setting [5]), 0.487 ± 0.031 s⁻¹; in data set [2] (setting [4]), 9.1 s⁻¹; in data set [2] (setting [5]) it was 14.4 ± 0.5 s⁻¹; in data set [3] (setting [4]), 66.2 s⁻¹; in data set [3] (setting [5]) it was 84 ± 2 s⁻¹. Further, the kcat/Km was 13.5 M⁻¹ s⁻¹ in data set [1] (setting [5]), 8300 M⁻¹ s⁻¹ in data set [2] (setting [5]) and 390000 M⁻¹ s⁻¹ in data set [3] (setting [5]).

B2: Aspergillus awamori glucoamylase variant Asn182→Ala (Aspergillus awamori; N206A) (protein)
chain: ATLDSWLSNEATVARTAILNNIGADGAWVSGADSGIVVASPSTDNPDYFYTWTRDSGLVLKTLVDLFRNGDTSLLSTIENYISAQAIVQGISNPSGDLSSGAGLGEPKFNVDETAYTGSWGRPQRDGPALRATAMIGFGQWLLDNGYTSTATDIVWPLVRNDLSYVAQYWNQTGYDLWEEVAGSSFFTIAVQHRALVEGSAFATAVGSSCSWCDSQAPEILCYLQSFWTGSFILANFDSSRSGKDANTLLGSIHTFDPEAACDDSTFQPCSPRALANHKEVVDSFRSIYTLNDGLSDSEAVAVGRYPEDTYYNGNPWFLCTLAAAEQLYDALYQWDKQGSLEVTDVSLDFFKALYSDAATGTYSSSSSTYSSIVDAVKTFADGFVSIVETHAASNGSMSEQYDKSDGEQLSARDLTWSYAALLTANNRRNSVVPASWGETSASSVPGTCAATSAIGTYSSVTVTSWPSIVATGGTTTTATPTGSGSVTSTSKTTATASKTSTSTSSTSCTTPTAVAVTFDLTATTTYGENIYLVGSISQLGDWETSDGIALSADKYTSSDPLWYVTVTLPAGESFEYKFIRIESDDSVEWESDPNREYTVPQACGTSTATVTDTWR
B2: in data set [1] (other: pH 4.4 and 50° C.), the Km worked out at 64300 µM, the kcat is 0.397 ± 0.019 s⁻¹ and the kcat/Km worked out at 6.18 M⁻¹ s⁻¹. In data set [2] (other: pH 4.4 and 50° C.), the Michaelis constant (Km) was 1380 µM, the kcat turned out to be 11.6 ± 0.3 s⁻¹ and the kcat/Km was 8400 M⁻¹ s⁻¹. In data set [3] (other: pH 4.4 and 50° C.), the Michaelis-Menten constant (Km) is 260 µM, the catalytic constant (kcat) is 65 ± 4 s⁻¹ and the catalytic efficiency (kcat/Km) was 250000 M⁻¹ s⁻¹.

B3: Aspergillus awamori glucoamylase variant Leu177→His (Aspergillus awamori; L201H) (protein)
chain: ATLDSWLSNEATVARTAILNNIGADGAWVSGADSGIVVASPSTDNPDYFYTWTRDSGLVLKTLVDLFRNGDTSLLSTIENYISAQAIVQGISNPSGDLSSGAGLGEPKFNVDETAYTGSWGRPQRDGPALRATAMIGFGQWLLDNGYTSTATDIVWPLVRNDLSYVAQYWNQTGYDHWEEVNGSSFFTIAVQHRALVEGSAFATAVGSSCSWCDSQAPEILCYLQSFWTGSFILANFDSSRSGKDANTLLGSIHTFDPEAACDDSTFQPCSPRALANHKEVVDSFRSIYTLNDGLSDSEAVAVGRYPEDTYYNGNPWFLCTLAAAEQLYDALYQWDKQGSLEVTDVSLDFFKALYSDAATGTYSSSSSTYSSIVDAVKTFADGFVSIVETHAASNGSMSEQYDKSDGEQLSARDLTWSYAALLTANNRRNSVVPASWGETSASSVPGTCAATSAIGTYSSVTVTSWPSIVATGGTTTTATPTGSGSVTSTSKTTATASKTSTSTSSTSCTTPTAVAVTFDLTATTTYGENIYLVGSISQLGDWETSDGIALSADKYTSSDPLWYVTVTLPAGESFEYKFIRIESDDSVEWESDPNREYTVPQACGTSTATVTDTWR
As for B3, the Km in data set [1] (other: pH 4.4 and 50° C.) came to 49700 µM; in data set [2] (other: pH 4.4 and 50° C.), 5300 µM; in data set [3] (other: pH 4.4 and 50° C.), 300 µM. Moreover, the kcat in data set [1] (other: pH 4.4 and 50° C.) is 0.0438 ± 0.0018 s⁻¹; in data set [2] (other: pH 4.4 and 50° C.) it was 2.6 ± 0.1 s⁻¹; in data set [3] (other: pH 4.4 and 50° C.), 15.9 ± 0.8 s⁻¹. Further, the kcat/Km turned out to be 0.881 M⁻¹ s⁻¹ in data set [1] (other: pH 4.4 and 50° C.); 490 M⁻¹ s⁻¹ in data set [2] (other: pH 4.4 and 50° C.); 53000 M⁻¹ s⁻¹ in data set [3] (other: pH 4.4 and 50° C.).

B4: Aspergillus awamori glucoamylase variant Gly183→Lys (Gly→Lys183, G→K183) (Aspergillus awamori; G207K) (protein)
chain: ATLDSWLSNEATVARTAILNNIGADGAWVSGADSGIVVASPSTDNPDYFYTWTRDSGLVLKTLVDLFRNGDTSLLSTIENYISAQAIVQGISNPSGDLSSGAGLGEPKFNVDETAYTGSWGRPQRDGPALRATAMIGFGQWLLDNGYTSTATDIVWPLVRNDLSYVAQYWNQTGYDLWEEVNKSSFFTIAVQHRALVEGSAFATAVGSSCSWCDSQAPEILCYLQSFWTGSFILANFDSSRSGKDANTLLGSIHTFDPEAACDDSTFQPCSPRALANHKEVVDSFRSIYTLNDGLSDSEAVAVGRYPEDTYYNGNPWFLCTLAAAEQLYDALYQWDKQGSLEVTDVSLDFFKALYSDAATGTYSSSSSTYSSIVDAVKTFADGFVSIVETHAASNGSMSEQYDKSDGEQLSARDLTWSYAALLTANNRRNSVVPASWGETSASSVPGTCAATSAIGTYSSVTVTSWPSIVATGGTTTTATPTGSGSVTSTSKTTATASKTSTSTSSTSCTTPTAVAVTFDLTATTTYGENIYLVGSISQLGDWETSDGIALSADKYTSSDPLWYVTVTLPAGESFEYKFIRIESDDSVEWESDPNREYTVPQACGTSTATVTDTWR
Consider B4, for which the Km in data set [1] (setting [6]) came to 39000 µM; in data set [2] (setting [6]), 1100 µM; in data set [3] (setting [6]), 140 µM.

B5: Aspergillus awamori glucoamylase variant Ser119→Tyr (Ser→Tyr119, S→Y119) (Aspergillus awamori; S143Y) (protein)
chain: ATLDSWLSNEATVARTAILNNIGADGAWVSGADSGIVVASPSTDNPDYFYTWTRDSGLVLKTLVDLFRNGDTSLLSTIENYISAQAIVQGISNPSGDLSSGAGLGEPKFNVDETAYTGYWGRPQRDGPALRATAMIGFGQWLLDNGYTSTATDIVWPLVRNDLSYVAQYWNQTGYDLWEEVNGSSFFTIAVQHRALVEGSAFATAVGSSCSWCDSQAPEILCYLQSFWTGSFILANFDSSRSGKDANTLLGSIHTFDPEAACDDSTFQPCSPRALANHKEVVDSFRSIYTLNDGLSDSEAVAVGRYPEDTYYNGNPWFLCTLAAAEQLYDALYQWDKQGSLEVTDVSLDFFKALYSDAATGTYSSSSSTYSSIVDAVKTFADGFVSIVETHAASNGSMSEQYDKSDGEQLSARDLTWSYAALLTANNRRNSVVPASWGETSASSVPGTCAATSAIGTYSSVTVTSWPSIVATGGTTTTATPTGSGSVTSTSKTTATASKTSTSTSSTSCTTPTAVAVTFDLTATTTYGENIYLVGSISQLGDWETSDGIALSADKYTSSDPLWYVTVTLPAGESFEYKFIRIESDDSVEWESDPNREYTVPQACGTSTATVTDTWR
For the protein B5, the Km amounted to 66200 µM in data set [1] (setting [6]), 1100 µM in data set [2] (setting [6]) and 200 µM in data set [3] (setting [6]).

B6: Aspergillus awamori glucoamylase variant Trp178→Arg (Aspergillus awamori; W202R) (protein)
chain: ATLDSWLSNEATVARTAILNNIGADGAWVSGADSGIVVASPSTDNPDYFYTWTRDSGLVLKTLVDLFRNGDTSLLSTIENYISAQAIVQGISNPSGDLSSGAGLGEPKFNVDETAYTGSWGRPQRDGPALRATAMIGFGQWLLDNGYTSTATDIVWPLVRNDLSYVAQYWNQTGYDLREEVNGSSFFTIAVQHRALVEGSAFATAVGSSCSWCDSQAPEILCYLQSFWTGSFILANFDSSRSGKDANTLLGSIHTFDPEAACDDSTFQPCSPRALANHKEVVDSFRSIYTLNDGLSDSEAVAVGRYPEDTYYNGNPWFLCTLAAAEQLYDALYQWDKQGSLEVTDVSLDFFKALYSDAATGTYSSSSSTYSSIVDAVKTFADGFVSIVETHAASNGSMSEQYDKSDGEQLSARDLTWSYAALLTANNRRNSVVPASWGETSASSVPGTCAATSAIGTYSSVTVTSWPSIVATGGTTTTATPTGSGSVTSTSKTTATASKTSTSTSSTSCTTPTAVAVTFDLTATTTYGENIYLVGSISQLGDWETSDGIALSADKYTSSDPLWYVTVTLPAGESFEYKFIRIESDDSVEWESDPNREYTVPQACGTSTATVTDTWR
Take B6: in data set [1] (other: pH 4.4 and 50° C.), the Km was 73100 µM, the kcat worked out at 0.0728 ± 0.0027 s⁻¹ and the catalytic efficiency (kcat/Km) was determined as 0.997 M⁻¹ s⁻¹. For the same protein, in data set [2] (other: pH 4.4 and 50° C.), the Km was found to be 1520 µM, the kcat is 1.86 ± 0.11 s⁻¹ and the catalytic efficiency (kcat/Km) came to 1220 M⁻¹ s⁻¹. Besides, in data set [3] (other: pH 4.4 and 50° C.), the Michaelis constant (Km) came out at 260 µM, the kcat was 16.6 ± 0.4 s⁻¹ and the kcat/Km is 63000 M⁻¹ s⁻¹.
